# Positions count from the first letter of the chain named. Names may count otherwise. “And” between values parts separate entries of the source, which are not always exact repeats. Identical values can stand only once.
# B1: dBBDu193/L127 (antibody, V domains shown)
# VH: QVQLVESGGGLVQPGRSLRLSCAASGFTFSNAWMHWVRQAPGKGLEWVAQIKDRSNQYATYYAPSVKGRFTISRDDSKNSIYLQMNSLKTEDTAVYYCHYVHYSAASTLLPSFGVDAWGQGTTVTVSS
# VL: DIVMTQSPLSLPVTPGEPASISCRASEELLHINRHIFLHWYQQKPGQAPRLLIYKVYNRFTGVPDRFSGSGSGTDFTLKISRVEAEDVGVYYCAQGTSVPFTFGQGTKLEIK
# notes: also called dBBDu_193 / dBBDu.L127
# B2: dBBDu189/L126 (antibody, V domains shown)
# VH: B1 VH with V48I, S104A, A105Q, T108S
# VL: B1 VL with A25T, H35Y, Y57Q, T61S, T97S, S98A
# B3: dBBDu193/L132 (antibody, V domains shown)
# VH: B1 VH
# VL: B1 VL with R24Q, A25T, L30V, H35F, Y57S, T61S
# notes: also called dBBDu_193 / dBBDu.L132
# B4: CE115HA000 V11L/D72A/L78I/D101Q with GGSGGS inserted between Kabat positions 99 and 100, one-arm antibody (antibody, V domains shown)
# VH: QVQLVESGGGLVQPGRSLRLSCAASGFTFSNAWMHWVRQAPGKGLEWVAQIKAKSNNYATYYAESVKGRFTISRADSKNSIYLQMNSLKTEDTAVYYCRYVHYGAGGSGGSYYGVQAWGQGTTVTVSS
# VL: DIVMTQSPLSLPVTPGEPASISCRSSQSLVHSNRNTYLHWYQQKPGQAPRLLIYKVSNRFSGVPDRFSGSGSGTDFTLKISRVEAEDVGVYYCGQGTQVPYTFGQGTKLEIKR
# B5: CE115HA000 V11L/D72A/L78I/D101Q with GGSGGGS inserted between Kabat positions 99 and 100, one-arm antibody (antibody, V domains shown)
# VH: QVQLVESGGGLVQPGRSLRLSCAASGFTFSNAWMHWVRQAPGKGLEWVAQIKAKSNNYATYYAESVKGRFTISRADSKNSIYLQMNSLKTEDTAVYYCRYVHYGAGGSGGGSYYGVQAWGQGTTVTVSS
# VL: B4 VL
# B6: CE115HA000 V11L/D72A/L78I/D101Q with GGSGGSGGS inserted between Kabat positions 99 and 100, one-arm antibody (antibody, V domains shown)
# VH: QVQLVESGGGLVQPGRSLRLSCAASGFTFSNAWMHWVRQAPGKGLEWVAQIKAKSNNYATYYAESVKGRFTISRADSKNSIYLQMNSLKTEDTAVYYCRYVHYGAGGSGGSGGSYYGVQAWGQGTTVTVSS
# VL: B4 VL
# B7: CE115HA000 V11L/D72A/L78I/D101Q without insertion, one-arm antibody (antibody, human IgG1, kappa, L234A L235A, N297A, name in Kabat numbering)
# heavy: QVQLVESGGGLVQPGRSLRLSCAASGFTFSNAWMHWVRQAPGKGLEWVAQIKAKSNNYATYYAESVKGRFTISRADSKNSIYLQMNSLKTEDTAVYYCRYVHYGAYYGVQAWGQGTTVTVSSASTKGPSVFPLAPSSKSTSGGTAALGCLVKDYFPEPVTVSWNSGALTSGVHTFPAVLQSSGLYSLSSVVTVPSSSLGTQTYICNVNHKPSNTKVDKKVEPKSCDKTHTCPPCPAPEAAGGPSVFLFPPKPKDTLMISRTPEVTCVVVDVSHEDPEVKFNWYVDGVEVHNAKTKPREEQYASTYRVVSVLTVLHQDWLNGKEYKCKVSNKALPAPIEKTISKAKGQPREPQVYTLPPSRCELTKNQVSLSCAVKGFYPSDIAVEWESNGQPENNYKTTPPVLDSDGSFFLVSKLTVDKSRWQQGNVFSCSVMHEALHNHYTQKSLSLSPDYKDDDDK
# chain: EPKSSDKTHTCPPCPAPELLGGPSVFLFPPKPKDTLMISRTPEVTCVVVDVSHEDPEVKFNWYVDGVEVHNAKTKPREEQYNSTYRVVSVLTVLHQDWLNGKEYKCKVSNKALPAPIEKTISKAKGQPREPQVCTLPPSRDELTKNQVSLWCLVKGFYPSDIAVEWESNGQPENNYKTTPPVLDSDGSFFLYSKLTVDKSRWQQGNVFSCSVMHEALHNRYTQKSLSLSP
# light: DIVMTQSPLSLPVTPGEPASISCRSSQSLVHSNRNTYLHWYQQKPGQAPRLLIYKVSNRFSGVPDRFSGSGSGTDFTLKISRVEAEDVGVYYCGQGTQVPYTFGQGTKLEIKRTVAAPSVFIFPPSDEQLKSGTASVVCLLNNFYPREAKVQWKVDNALQSGNSQESVTEQDSKDSTYSLSSTLTLSKADYEKHKVYACEVTHQGLSSPVTKSFNRGEC
# notes: one-arm antibody; also called No insertion
# B8: CE115HA000 (unaltered), one-arm antibody with GLS3000 (antibody, human IgG1, kappa, L234A L235A, N297A)
# heavy: B7 heavy with L11V, A75D, I81L, Q110D
# chain: B7 chain
# light: B7 light
# B9: dBBDu167/L094 (antibody, V domains shown)
# VH: B1 VH with R54K, S55G, Q57L, T60A, S104A, A105S, S107G, T108G, L109G, S112G
# VL: B1 VL with R24Y, F37Y, T61N, T97S
# notes: Purified IgG; Fab genes of the panning output converted into IgG format; also called dBBDu_167/dBBDu.L094
# B10: dBBDu186/L098 (antibody, V domains shown)
# VH: B1 VH with S104A, A105Q, L109V, S112A
# VL: B1 VL with R24A, L30V, H35Y, Y57S, T61I, T97S, S98Q
# notes: Purified IgG; Fab genes of the panning output converted into IgG format
# B11: dBBDu186/L100 (antibody, V domains shown)
# VH: B1 VH with S104A, A105Q, L109V, S112A
# VL: B1 VL with R24S, L30V, H35Y, T61M, A94G, T97S
# notes: as for B10
# B12: dBBDu186/L106 (antibody, V domains shown)
# VH: B1 VH with S104A, A105Q, L109V, S112A
# VL: B1 VL with R24S, A25T, H35F, Y57A, T61M, T97S, S98Q
# notes: as for B10
# B13: dBBDu186/L108 (antibody, V domains shown)
# VH: B1 VH with S104A, A105Q, L109V, S112A
# VL: B1 VL with A25T, H35F, I36T, Y57S, T61M, T97S, S98A
# notes: as for B10
# B14: dBBDu189/L119 (antibody, V domains shown)
# VH: B1 VH with V48I, S104A, A105Q, T108S
# VL: B1 VL with R24T, E27Q, L30V, H35F, Y57S, T61I, T97S, S98Q
# notes: as for B10
# B15: dBBDu_H115/L039 (antibody, human IgG1, V domains shown)
# VH: QVQLVESGGGLVQPGRSLRLSCAASGFTFSNAWMHWVRQAPGKGLEWVAQIKDKANSYNTYYAPSVKGRFTISRDDSKNSIYLQMNSLKTEDTAVYYCRYVHYGSSYGFLFAGYGVDAWGQGTTVTVSS
# VL: DIVMTQSPLSLPVTPGEPASISCTSSQSLLHANRNTYLHWYQQKPGQAPRLLIYKVSNRFSGVPDRFSGSGSGTDFTLKISRVEAEDVGVYYCAQGTSAPFTFGQGTKLEIK
# notes: Full length IgG (human IgG1 CH1-Fc heavy chain, kappa light chain)
# B16: dBBDu_H115/L008 (antibody, V domains shown)
# VH: B15 VH
# VL: B15 VL with T24Q, Q27E, S28E, N35K, S57Q, S98A, A99T
# notes: Full length IgG (human IgG1 CH1-Fc heavy chain, kappa light chain); also called Du115/DUL008
# B17: dBBDu_H115/L014 (antibody, human IgG1, V domains shown)
# VH: B15 VH
# VL: B15 VL with A32Q, S61N, S98A, A99N
# notes: as for B15
# B18: dBBDu_H115/L016 (antibody, human IgG1, V domains shown)
# VH: B15 VH
# VL: B15 VL with L9M, T24Q, Q27E, S61N, S98A, A99N, F101Y
# notes: as for B15
# B19: dBBDu_H115/L035 (antibody, human IgG1, V domains shown)
# VH: B15 VH
# VL: B15 VL with T24A, S25A, Q27E, A32T, S98Q, A99S
# notes: as for B15
# Target: T1, biotin-labeled human CD137 fused to human IgG1 Fc fragment (human CD137-Fc) (human, biotin-labeled)
# T1 construct: also called biotin-human CD137-Fc
# Assay: bead ELISA on biotin-human CD137-Fc, 250 ng IgG; free CD3 epsilon 62.5 pmol as competitor
row,Binder,ELISA signal with Free CD3e 62.5 pmol
1,B1,2470
2,B2,9750
3,B3,10400

# Target: T2, biotinylated CD3 epsilon epitope peptide (UniProt P07766 22-48, biotinylated)
# T2 chain: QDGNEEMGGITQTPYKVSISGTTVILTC
# Assay: SPR (Biacore); biotinylated CD3 epsilon epitope peptide on chip via streptavidin, antibody as analyte
row,Binder,Kd
1,B4,34.6 nM and 31.1 nM
2,B5,43.5 nM and 34.3 nM
3,B6,43.9 nM and 35.4 nM
4,B7,6.96 nM
5,B8,110 nM

# Target: T3, biotin-labeled human CD137 fused to human IgG1 Fc fragment (human, biotin-labeled)
# T3 construct: also called human CD137-Fc; biotin-human CD137-Fc
# Assay: bead ELISA, IgG on biotin-human CD137-Fc; control competitor: free human IgG1 Fc 62.5 pmol
row,Binder,"ELISA signal, Free Fc 62.5 pmol"
1,B9,141000
2,B10,115000
3,B11,102000
4,B12,9860
5,B13,83600
6,B14,88100

# Target: T1, biotin-labeled human CD137 fused to …
# Assay: bead ELISA on biotin-human CD137-Fc; decrease of signal with free CD3 epsilon as competitor against free Fc
row,Binder,Signal decrease [%]
1,B1,59.4
2,B2,87
3,B3,91

# Target: T4, biotin-labeled human CD137 fused to human IgG1 Fc fragment (human, biotin-labeled)
# T4 construct: also called human CD137-Fc; biotin-human CD137-Fc
# Assay: bead ELISA, IgG on biotin-human CD137-Fc; signal with free CD3e 62.5 pmol against free Fc 62.5 pmol
row,Binder,Signal decrease [%]
1,B15,97.2
2,B16,98.1
3,B17,97.9
4,B18,96.7
5,B19,97.9

# Target: T3, biotin-labeled human CD137 fused to …
# Assay: bead ELISA, IgG on biotin-human CD137-Fc; competitor: free CD3 epsilon 62.5 pmol
row,Binder,"ELISA signal, Free CD3e 62.5 pmol"
1,B9,4370
2,B10,15900
3,B11,88900
4,B12,3090
5,B13,50800
6,B14,20400

# Target: T4, biotin-labeled human CD137 fused to …
# Assay: bead ELISA (chemiluminescence), IgG on biotin-human CD137-Fc on streptavidin beads; competitor free CD3 epsilon 62.5 pmol
row,Binder,ELISA signal with Free CD3e 62.5 pmol
1,B15,1550
2,B16,1450
3,B17,1510
4,B18,1540
5,B19,1470

# Target: T3, biotin-labeled human CD137 fused to …
# Assay: bead ELISA, IgG on biotin-human CD137-Fc; decrease with free CD3 epsilon 62.5 pmol against free Fc 62.5 pmol
row,Binder,Signal decrease [%]
1,B9,96.9
2,B10,86.2
3,B11,13
4,B12,68.7
5,B13,39.2
6,B14,76.9

# Target: T4, biotin-labeled human CD137 fused to …
# Assay: bead ELISA (chemiluminescence), IgG on biotin-human CD137-Fc on streptavidin beads; control competitor free human Fc 62.5 pmol
row,Binder,ELISA signal with Free Fc 62.5 pmol
1,B15,55800
2,B16,76900
3,B17,72100
4,B18,46800
5,B19,70600

# Target: T1, biotin-labeled human CD137 fused to …
# Assay: bead ELISA on biotin-human CD137-Fc, 250 ng IgG; free human IgG1 Fc 62.5 pmol as control competitor
row,Binder,ELISA signal with Free Fc 62.5 pmol
1,B1,6080
2,B2,75100
3,B3,116000
